This passage reports 抗体最低作用浓度 and 效价 (dilution factor (1:x)) results from patent CN109776679A.

In the experiment the target is T1, 丝氨酸蛋白酶抑制因子SPINK1的第10-19个氨基酸片段 (synthetic SPINK1 peptide, aa 10-19).
T1 sequence (peptide): SALALLSLSG
Description: antibody titer; method and coated antigen not stated there, taken to be ELISA on the coated immunogen peptide. On the technique in general: ELISA stands for enzyme-linked immunosorbent assay.

B1: 单克隆抗体KZN2 (monoclonal antibody against SPINK1 produced by hybridoma CGMCC No.15800) (antibody, V domains shown)
VH: QVQLQQSGGGLVQPGGAMKLSCTASGFTFSDAWMYWVRQSPEKGLEWVAEIRNKAYNHATYYAESVKGRFTISGDDSKSSVYLQMNSLRAEDTGIYYCTTYDYWGQGTTVTVSS
VL: DIVMTQSPLSLPVSLGDQASISCRSSQSLVHGDGNTYLHWYLQKPGQSPNLLIYKISNRFSGVPDRFSGSGSGTDFTLKISRVEAEDLGVYFCSQNTHVPRTFGGGTKLEIK
As to B1, the 抗体最低作用浓度 is 0.0825 µg/mL and the 效价 (dilution factor (1:x)) is 4000.
